Values belong to the molecule of their own block, whether it stands above or below them.
Experiments:
[1] = biological target: human RANK-L, full length, membrane-bound, expressed on HEK293T cells (human) (UniProt O14788); assay: FACS, HEK293T with human RANK-L, 80 pM Nanobody
[2] = biological target: human RANK-L, full length, membrane-bound, expressed on HEK293T cells (human) (UniProt O14788); assay: FACS, HEK293T with human RANK-L, 400 pM Nanobody
[3] = biological target: human RANK-L, full length, membrane-bound, expressed on HEK293T cells (human) (UniProt O14788); assay: FACS, HEK293T with human RANK-L, 16 pM Nanobody
[4] = biological target: human RANK-L, full length, membrane-bound, expressed on HEK293T cells (human) (UniProt O14788); assay: FACS, HEK293T with human RANK-L, 2000 pM Nanobody
[5] = biological target: cynomolgus RANK-L, full length, membrane-bound, expressed on HEK293T cells (cynomolgus monkey); assay: FACS, HEK293T with cynomolgus RANK-L, 400 pM Nanobody
[6] = biological target: cynomolgus RANK-L, full length, membrane-bound, expressed on HEK293T cells (cynomolgus monkey); assay: FACS, HEK293T with cynomolgus RANK-L, 2000 pM Nanobody
[7] = biological target: human RANK-L, full length, membrane-bound, expressed on HEK293T cells (human) (UniProt O14788); assay: FACS, HEK293T with human RANK-L, 3.2 pM Nanobody
human RANK-L [8] = biological target: T1, human RANK-L (human, UniProt O14788 140-317); assay: competition ELISA
T1 chain: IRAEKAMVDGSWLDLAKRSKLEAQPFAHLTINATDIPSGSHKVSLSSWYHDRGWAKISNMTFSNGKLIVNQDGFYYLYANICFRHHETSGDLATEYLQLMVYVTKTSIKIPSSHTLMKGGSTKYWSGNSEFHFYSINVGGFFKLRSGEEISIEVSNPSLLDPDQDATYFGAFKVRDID

human RANK-L [9] = biological target: T1, human RANK-L; assay: competition ELISA
human RANK-L [10] = biological target: T1, human RANK-L; assay: cell-based or functional assay

Molecule: irrelevant Nanobody (VHH)
- PE mean fluorescence [1]: 82
- PE mean fluorescence [2]: 90
- PE mean fluorescence [3]: 77
- PE mean fluorescence [4]: 87
- PE mean fluorescence [5]: 140
- PE mean fluorescence [6]: 149
- PE mean fluorescence [7]: 84

B2: RANKL003p (VHH)
chain: EVQLVESGGGLVQPGGSLRLSCAASGRTFSRSAMGWFRQAPGKGREFVGFITGSGGTTYYADSVKGRFTISRDNAQNPVYLQMNSLRPEDTAVYYCAVYRRTYISSTYSESSEYDYWGQGTLVTVSSGGGGSGGGGSGGGGSGGGGSGGGGSGGGGSEVQLVESGGGLVQPGGSLRLSCAASGRTFSRSAMGWFRQAPGKGREFVGFITGSGGTTYYADSVKGRFTISRDNAQNPVYLQMNSLRPEDTAVYYCAVYRRTYISSTYSESSEYDYWGQGTLVTVSSGGGC
modifications: PEGylated with maleimide PEG, average MW 40,000; residue not stated (the entry ends in GGGC)
- EC50 (human RANK-L [9]): 0.0409 nM

Other lines, results leading:

- IC50 (human RANK-L [8]): 0.0465 nM
B1: RANKL001p (VHH)
chain: EVQLVESGGGLVQPGGSLRLSCAASGFTFSSYPMGWFRQAPGKGREFVSSITGSGGSTYYADSVKGRFTISRDNAKNTLYLQMNSLRPEDTAVYYCAAYIRPDTYLSRDYRKYDYWGQGTLVTVSSGGGGSGGGSEVQLVESGGGLVQPGGSLRLSCAASGFTFSSYPMGWFRQAPGKGREFVSSITGSGGSTYYADSVKGRFTISRDNAKNTLYLQMNSLRPEDTAVYYCAAYIRPDTYLSRDYRKYDYWGQGTLVTVSSGGGC
modifications: PEGylated with maleimide PEG, average MW 40,000; residue not stated (the entry ends in GGGC)

- IC50, RANK-L induced NF-kappaB reporter (luciferase) in HEK293T (human RANK-L [10]): 6.03 nM
B3: osteoprotegerin (receptor, UniProt O00300 22-401, looked up)
chain: ETFPPKYLHYDEETSHQLLCDKCPPGTYLKQHCTAKWKTVCAPCPDHYYTDSWHTSDECLYCSPVCKELQYVKQECNRTHNRVCECKEGRYLEIEFCLKHRSCPPGFGVVQAGTPERNTVCKRCPDGFFSNETSSKAPCRKHTNCSVFGLLLTQKGNATHDNICSGNSESTQKCGIDVTLCEEAFFRFAVPTKFTPNWLSVLVDNLPGTKVNAESVERIKRQHSSQEQTFQLLKLWKHQNKDQDIVKKIIQDIDLCENSVQRHIGHANLTFEQLRSLMESLPGKKVGAEDIEKTIKACKPSDQILKLLSLWRIKNGDQDTLKGLMHALKHSKTYHFPKTVTQSLKKTIRFLHSFTMYKLYQKLFLEMIGNQVQSVKISCL
